Experimental findings from paper PMC6021170 are described below.

The nature of series [1]: western blot of conditioned medium, HEK293. Particulars: glycan lost; control: PT-WT.
Series [2] in a line: western blot of cell lysates, HEK293. Particulars: glycan lost; control: PT-WT. In general terms: A western blot detects proteins with antibodies after separation by electrophoresis.
A short description of series [3]: ELISA of conditioned medium, endogenous prothrombin, HepG2. Particulars: glycan changed form; control: untreated HepG2 cells. For orientation: An ELISA detects its analyte on a solid surface through an enzyme-linked reagent.
The nature of series [4]: ELISA of cell lysates, endogenous prothrombin, HepG2. Particulars: glycan changed form; control: untreated HepG2 cells.
Series [5] is described as follows: cell surface biotinylation, western blot densitometry. Particulars: glycan lost.
The nature of series [6]: western blot of cell lysates, zymogen bands. Particulars: glycan lost.
Series [7] in a line: cycloheximide chase, lysate western blot. Conditions: glycan lost; control: WT corin.
The nature of series [8]: confocal co-staining after 4 hr CHX. Conditions: glycan lost; control: WT corin.
Series [9] in a line: western blot, cleaved Corin-p band in lysate. Conditions: glycan lost; control: WT corin.
Series [10] is described as follows: Endo H sensitive/resistant band ratio after 4 hr CHX. Conditions: glycan lost; control: WT corin.
Series [11] in a line: confocal co-staining with or without CHX. Conditions: glycan lost; control: WT corin.
Series [12] can be described thus: western blot of conditioned medium. Particulars: glycan lost.
Series [13] is described as follows: western blot of cell lysates. Particulars: glycan lost.
The target of series [14] is enteropeptidase mutant EK-4Q (human) (UniProt P00734). The series is described as follows: co-IP; lysates of transfected HEK293 cells immunoprecipitated with anti-V5 antibody and protein A-Sepharose; co-precipitated endogenous chaperones detected by western blotting and densitometry; cells without or with DNJ (2 mM, 37°C, 24-48 hr).
The target in series [15] is prothrombin mutant PT-N416Q (human) (UniProt P98073). The description is as above.
Where [16] appears, read: control: sR801A (soluble corin).

Substitutions are numbered along the chain they refer to. Numbers in names are those of the source.

UniProt P98073, sequence (P98073 whole entry, stated change not applied): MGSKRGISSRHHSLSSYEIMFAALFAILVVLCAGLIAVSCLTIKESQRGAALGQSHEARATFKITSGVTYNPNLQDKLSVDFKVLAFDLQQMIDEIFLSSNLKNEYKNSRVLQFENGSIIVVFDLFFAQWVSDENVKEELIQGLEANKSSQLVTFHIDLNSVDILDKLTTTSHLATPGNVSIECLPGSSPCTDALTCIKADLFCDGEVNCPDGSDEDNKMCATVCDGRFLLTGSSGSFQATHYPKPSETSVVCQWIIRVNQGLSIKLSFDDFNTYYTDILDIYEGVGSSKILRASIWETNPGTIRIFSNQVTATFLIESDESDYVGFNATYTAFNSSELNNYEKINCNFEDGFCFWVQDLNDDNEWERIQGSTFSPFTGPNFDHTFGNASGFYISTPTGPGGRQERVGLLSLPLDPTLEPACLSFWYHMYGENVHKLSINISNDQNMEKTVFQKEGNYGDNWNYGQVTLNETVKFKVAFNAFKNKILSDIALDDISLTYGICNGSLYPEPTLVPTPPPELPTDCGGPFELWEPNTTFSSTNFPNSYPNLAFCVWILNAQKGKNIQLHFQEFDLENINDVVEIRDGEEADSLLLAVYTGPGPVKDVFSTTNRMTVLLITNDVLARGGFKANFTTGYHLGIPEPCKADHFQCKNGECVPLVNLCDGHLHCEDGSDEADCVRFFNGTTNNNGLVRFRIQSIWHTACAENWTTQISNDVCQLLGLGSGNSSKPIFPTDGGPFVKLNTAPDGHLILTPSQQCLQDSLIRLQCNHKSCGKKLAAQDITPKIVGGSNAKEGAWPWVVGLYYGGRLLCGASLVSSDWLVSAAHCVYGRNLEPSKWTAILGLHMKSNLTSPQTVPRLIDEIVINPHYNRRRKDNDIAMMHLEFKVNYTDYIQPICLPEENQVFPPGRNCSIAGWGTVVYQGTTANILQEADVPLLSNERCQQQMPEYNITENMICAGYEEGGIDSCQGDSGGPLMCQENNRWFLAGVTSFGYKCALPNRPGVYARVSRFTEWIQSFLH

Regarding prothrombin (PT): PT-N416Q, the “expression_or_secretion, percent_of_wt” value in [1] is reported as “decreases”. Moreover, the expression_or_secretion entry in series [2] is listed as “no change”.
Regarding prothrombin (PT): DNJ, in [3], the “expression_or_secretion, percent_of_wt” value is “decreases”. The expression_or_secretion result in [4] is “no change”.

B1: corin: N1022Q (protein)
parent chain: MKQSPALAPEERCRRAGSPKPVLRADDNNMGNGCSQKLATANLLRFLLLVLIPCICALVLLLVILLSYVGTLQKVYFKSNGSEPLVTDGEIQGSDVILTNTIYNQSTVVSTAHPDQHVPAWTTDASLPGDQSHRNTSACMNITHSQCQMLPYHATLTPLLSVVRNMEMEKFLKFFTYLHRLSCYQHIMLFGCTLAFPECIIDGDDSHGLLPCRSFCEAAKEGCESVLGMVNYSWPDFLRCSQFRNQTESSNVSRICFSPQQENGKQLLCGRGENFLCASGICIPGKLQCNGYNDCDDWSDEAHCNCSENLFHCHTGKCLNYSLVCDGYDDCGDLSDEQNCDCNPTTEHRCGDGRCIAMEWVCDGDHDCVDKSDEVNCSCHSQGLVECRNGQCIPSTFQCDGDEDCKDGSDEENCSVIQTSCQEGDQRCLYNPCLDSCGGSSLCDPNNSLNNCSQCEPITLELCMNLPYNSTSYPNYFGHRTQKEASISWESSLFPALVQTNCYKYLMFFSCTILVPKCDVNTGEHIPPCRALCEHSKERCESVLGIVGLQWPEDTDCSQFPEENSDNQTCLMPDEYVEECSPSHFKCRSGQCVLASRRCDGQADCDDDSDEENCGCKERDLWECPSNKQCLKHTVICDGFPDCPDYMDEKNCSFCQDDELECANHACVSRDLWCDGEADCSDSSDEWDCVTLSINVNSSSFLMVHRAATEHHVCADGWQEILSQLACKQMGLGEPSVTKLIQEQEKEPRWLTLHSNWESLNGTTLHELLVNGQSCESRSKISLLCTKQDCGRRPAARMNKRILGGRTSRPGRWPWQCSLQSEPSGHICGCVLIAKKWVLTVAHCFEGRENAAVWKVVLGINNLDHPSVFMQTRFVKTIILHPRYSRAVVDYDISIVELSEDISETGYVRPVCLPNPEQWLEPDTYCYITGWGHMGNKMPFKLQEGEVRIISLEHCQSYFDMKTITTRMICAGYESGTVDSCMGDSGGPLVCEKPGGRWTLFGLTSWGSVCFSKVLGPGVYSNVSYFVEWIKRQIYIQTFLLN
Regarding B1, in [5] (control: WT corin), the “expression_or_secretion, percent_of_wt” value was “decreases”. Further, in series [6] (control: WT corin), the expression_or_secretion entry is on record as “no change”. Further, in series [7], the “degradation_or_half_life, half_life” value is “increases, 6.1 ± 0.3 vs 3.8 ± 0.4”. Also, in [8], the “localisation_or_trafficking, other: Pearson's correlation coefficient” value was “increases, 0.35 ± 0.05 vs 0.15 ± 0.06”. The “other: proteolytic processing” value in series [9] was “decreases”. The localisation_or_trafficking result in series [10] is listed as “changes”; in [11], “no change”.

B2: corin: sR801A/N1022Q (protein)
parent chain: B1 parent chain
As for B2, the “expression_or_secretion, percent_of_wt” value in series [12] (setting [16]) was “decreases”. For the same molecule, the expression_or_secretion result in series [13] (setting [16]) was “no change”.

B3: corin: R801A/N1022Q (protein)
parent chain: B1 parent chain with R801A
For the molecule B3, the “expression_or_secretion, percent_of_wt” value in series [5] (control: R801A corin) is given as “decreases”. In addition, in series [6] (control: R801A corin), the expression_or_secretion entry is “no change”.

B4: corin: sN1022Q (protein)
parent chain: B1 parent chain
For B4, the “expression_or_secretion, percent_of_wt” value in series [12] (control: sWT (soluble corin)) is reported as “decreases”. Further, the expression_or_secretion entry in series [13] (control: sWT (soluble corin)) was “no change”.

B5: calnexin (natural protein)
chain: HDGHDDDVIDIEDDLDDVIEEVEDSKPDTTAPPSSPKVTYKAPVPTGEVYFADSFDRGTLSGWILSKAKKDDTDDEIAKYDGKWEVEEMKESKLPGDKGLVLMSRAKHHAISAKLNKPFLFDTKPLIVQYEVNFQNGIECGGAYVKLLSKTPELNLDQFHDKTPYTIMFGPDKCGEDYKLHFIFRHKNPKTGIYEEKHAKRPDADLKTYFTDKKTHLYTLILNPDNSFEILVDQSVVNSGNLLNDMTPPVNPSREIEDPEDRKPEDWDERPKIPDPEAVKPDDWDEDAPAKIPDEEATKPEGWLDDEPEYVPDPDAEKPEDWDEDMDGEWEAPQIANPRCESAPGCGVWQRPVIDNPNYKGKWKPPMIDNPSYQGIWKPRKIPNPDFFEDLEPFRMTPFSAIGLELWSMTSDIFFDNFIICADRRIVDDWANDGWGLKKAADGAAEPGVVGQMIEAAEERPWLWVVYILTVALPVFLVILFCCSGKKQTSGMEYKKTDAPQPDVKEEEEEKEEEKDKGDEEEEGEEKLEEKQKSDAEEDGGTVSQEEEDRKPKAEEDEILNRSPRNRKPRRE
As for B5, the co-precipitated level, percent of that with EK-WT in series [14] was 165%. Also, the co-precipitated level, percent of that with PT-WT in [15] turned out to be 171%.
